Assay: label from the status in PepcDB records

| Sequence | protein production |
| --- | --- |
| MRPRLGLLDASVLSFAVLPTDLDFNRHMTNARYLSLMDLGRLDLILRSGMWRLVLRQSLQPVIGGALVRFRHALRPFQPFRLTTRVLAWDARWLFIEHRVETLDGKPACTAVVRAAFVASTGMLPTADLLTRLGYGGAAPDVPAWIAPWLQADLACQPLEHHHHHH | failed |
| PKPLKNLDGQFCEICGDQIGLTVEGDLFVACNECGFPACRPCYEYERREGTQNCPQCKTRYKRLRGSPRVEGDEDEEDID | not failed |
| KTITGFYPLNQGHDALLARTSLIESAQKSLDLQYYIYRGDETSQLITWRLYEAAKRGVRIRLLLDDMQKRNDNVMAALNAHPNIEIRLFNPHQYRSARIFALTSDFERLNRRMHNKSLIADSVSAIVGGRNIGNEYFSFESEVEFGDFDLLLYGEAVQQTADQFDLYWNSVHAVPMEWISPQSQSVSDAAIQKQVTKLNLQEKFSSGRYDFTALDMYQ | failed |
| MFFGLTLGTAVATGGRDSTLKRAAPQASCMDVHNVTAEAETFTCNAYLATGEQTTLVDAGAMRGVVDVIREHADALDAVVLTHQHGDHVQRLDTVLDAFDAPLYAYGSHPRRDHALADGDTLTVGDEECEVVYTPGHADDHVSLVSESALFSGDVVVHDDGAFDDGSFGRTDRPGQSRERLIESIERILDRMPAGVEHMYSGHGGVFHGDVREVVERALERAERREPKYPDD | failed |
| MAYTIGVDFGTLSGRAVLVHVQTGEELAAAVKEYRHAVIDTVLPKTGQKLPRDWALQHPADYLEVLETTIPSLLEQTGVDPKDIIGIGIDFTACTILPIDSSGQPLCMLPEYEEEPHSYVKLWKHHAAQKHADRLNQIAEEEGEAFLQRYGGKISSEWMIPKVMQIAEEAPHIYEAADRIIEAADWIVYQLCGSLKRSNCTAGYKAMWSEKAGYPSDDFFEKLNPSMKTITKDKLSGSIHSVGEKAGSLTEKMAKLTGLLPGTAVAVANVDAHVSVPAVGITEPGKMLMIMGTSTCHVLLGEEVHIVPGMCGVVDNGILPGYAGYEAGQSCVGDHFDWFVKTCVPPAYQEEAKEKNIGVHELLSEKANHQAPGESGLLALDWWNGNRSTLVDADLTGMLLGMTLLTKPEEIYRALVEATAYGTRMIIETFKESGVPIEELFAAGGIAEKNPFVMQIYADVTNMDIKISGSPQAPALGSAIFGALAAGKEKGGYDDIKKAAANMGKLKDITYTPNAENAAVYEKLYAEYKELVHYFGKENHVMKRLKTIKNLQFSSAAKK | not failed |
| MRIDAHHHLWDLSVRDQPWTSDVPALRRTFTAAELRPALERNAIDATVVVQTIAVPQETPELLALTCTDPQVRAVVGWTDLTEPGIADRLAELREQPGGSALVGIRHGIQDETDPQWPARPEVRRGITSVAAAGLVYDLLVRPDQLPSAVRAVRELPDVRFVLDHAGNPVVSPDGLVSWTALLTDLAECPNVTVKLSGLVTRTGGDPAAALRPYADVLFETMGPDRLMYGSDWPVCLLAAEYDEVVAVAESLTEELSADEREAVFGTTAARWYGIPS | failed |
| MLDKVIYSLLRTQDPGLAQELYFRLQAKEQSFAEVAQKYSQGPESQTGGLVGPVEQSSLHPAMVQLLSSCQPGQISPPTRITEWYVIVRVEKFIPAQLEHHHHHH | not failed |
| MILIRLEPGMDLMEEMRAAFSEGVVVTGIGSLHRVRIRTADESELTVEGPLEILSLQGTISPDGVHIHIAVADSEGRVTGGHLRGDSPVRTTAEIAVIPYQGVLRRVMDRRTGYRELLVLE | failed |
| MATYSLANERLRALEDIEREIGAILQNAGTAILELSKEKTNERLLDRQAAAFTTSVQHVEAELSAQIRYLTQVATGQPHEGSSYSSRKDCQMALKRVDYARLKISDVARTCEQMLEN | failed |
| MSDTGNYLGPFLVNDFGDRYLYQVNRNAFNSIGSDSLYASTYGESLFAEYQLNIIIGTDSGLFPTYVVNKGIPSGSRYLFIELPEVIERLSEEGILKELPPEVIIATPDTWEEIATDLQINEYVFIDAVRVNESIASSDANLPEYRDISWNINLNVRTLVHETHASINCTQYILRQLENLAENRVAFSRTLVDTFKGRTAVILAGGPSLREALPWVRENRDRLVLIAVSRISKILQSEQIVPHLVATVDPQKVSFEVSREMLYFADMEESPVLVSSYHASPLLVGQWGGRSAYTDSLFPWSTPLNIETHLYTGPTVSNYALSIAMNMGCETIVLAGVDLCFSREGHTHAAGSAENKVGPDLGQLSPRIETNGGWLADTNHGYAHSLEILKLQAELAVSKGHRLYNISLGAAKIPLIEYRPPSEIDLPEDTISTSALIDKYLPPPTSKARLSHYRKIKKELERAQHKFKEILSLSQEALECTDGLFGRNGKERSFRHKVQMDKIERKLDRRYGDFSLLVKQFGLKKFLSILRTPKEEQEWTDEQIEKATRDYYQAYMAGTIQLLAVTNSALSRIEARIEEEKSSPDCDLFISQWLRDGQPGRGRFWLRNHPVTAQCLSEAILGKFRELDDQFTHLMTDEQTIRMELLEKGYDLKHIRSKARLLFRRGEREELEAMAAGIASHPDREKAEPYLYFINGLIAELQQEPNRAIECYQHLLVDPPHPTTEDALRQIASLAIAGNDVENALLALECLSRMSPAYLSPYGEILKALGRYDEAFDAFNRYLSIAPKDVGTLVTLGILCRDAGLADTARDLFARVLENDPTNRVALSQLEGLAAPSND | failed |
| MLNTSDIGKVFPSVTAVVEKGRLRFFAKAIGENNPIYTDEAAAKDAGYESLPMPPTFFFSLKMDVPNPFENYEKVGASLAKILHANQAFVYHQSVVAGDSLTFESHIADIYDKKAGALEFLVEKTKVSNQRGQHVADMTTTLVVRNLEHHHHHH | failed |
| MSRAANKLTNTAIKNATTEGKAQRKLADGGGLTLVVKPESKVWWLRYRYDGKERTLTLGAYPQTSLKEARAKRDEAKQLLAEGIDPVTHRATHKTKRVEATANTFKAVATEWLKEVHQKAVVEEHYNRNVRRLEQHAFPKLGRRPISEIEPSDILEPLRDIAKTGRRETAKRVKTLIGQVFRYTVSTGRAQRDMTADIRGILPASETKHHAAVVKPDEIADLLKRIDTYWGTPTVCMALELSPLLFLRPGELRTMKWEQIDWDDATWTTERTKNGEPLVVPLARQSIELLSQIQEVNGKWEWVFPGGHSKTKPMSNNAIRTALTRLELHGIMSAHGFRAMARTVLTERLGFRA | failed |
| MEEKNIHMQPNINYSYRNPNMYNMNYHNPIVPPPQQQMQLFVNDWKSILSPMQTCKIKQQFDDREFVADYFMGFKLDFNNKYLILDASTELMKFTACEKSEFCYRNCLPKICIPMNMKILSYGKEISKPDILMEKDCTCTFLCFNRPTIKMYDFSNNNNKELIGTIKTPYRCCSYNFNLFDPSNNKIMYMDDTCCQMSILCPCPWGPFKYSNFFLRDANSKEKIAHLRKEVPFLKFVKRDIDNYTLDFEQVQNPEWKMMLLAFALFLDYMYYDRK | failed |
| MKRHYIFASHGSFANGLLNSVELILGKQPDIHTLCAYVEEEVDLTQQVEALVARFPAQDELIVITDIFAGSVNNEFVRFLSRPHFHLLSGLNLPLIIDLLISAAEDNTEKLITEALTNAKESIQYCNQTIASAMTMDKDF | not failed |
| MENPDSAFLLFRNAPRLPLATMHTPLCGDSHQPDFAFRKPARDALLRPWNGRNHRCGLQDGREICQGQLPAHQKSYWSDCAALPRLFRAYGGAVVRGFLIVGNKAFTQPFSLNDLPGAGRMDVLCRCTSQALFISHGIRRDVEVYLLLLGPPSPPKSILIKGDEVRRMSPDERNVAGHIKKALAVECGKSWKKVHSGVYVSRKGLEELIEELSEKYSIIYLKEDGVDISNAQLPPNPLFVIGDHEGLTEEQEKVVERYAALKLSLSPLSLLAEQCVVIAHHHLDRLQF | failed |
| MTAPAPQTKNAAWGWVLLAGLFEVGFTYALKMSQHDGKYLGLFLLCAIVSFECLAQALKTLPVGLAYAVWTGIGSVGTILVGLVLFGDSLSALRLGLLTVLIGSIAGLKIVDR | failed |
| KSEAGAGKKVQVEFVSANPTGPLHIGHGRGAAIGDTICRLLAAIGWDVTREFYYNDAGQQIANLALSVQARCLGVEPGGPLWPTDGYQGEYIKDVARSYLNRETVDAGDQHVTAAGDPHDVEAIRRFAVAYLRREQDQDLRAFDVGFDVYFLESSLYAEGRVDDVVQRIIAKGHAYEQDGALWLRTTEFGDDKDRVMRKSDGSYTYFVPDVAYHLNKWERGFIRVVNEQGADHHSTITRVRAGLQALDAGIPKGWPEYVLHQMVTVMRGGEEVKISKRAGSYVTLRDLVDEVGRDATRFFFLMRKPDSQLVFDIDLAKQQTLENPVYYVQYAHARICSIFENAADKGVVPPT | failed |
| MKRKKPTIHDVAAKAGVGLGTVSRVLNDHPAVRHETRARVLRAMEELGYAPNPHARRIAGGRSYTVSVLLPFVATEFYRRLVEGIEGVLLEQRYDLALFPILSLARLKRYLENTTLAYLTDGLILASYDLTERFEEGRLPTERPVVLVDAQNPRYDSVYLDNRLGGRLAGAYLARFPGPIFAIAVEEEPDRAFRRTVFAERMAGFQEALKEAGRPFSPDRLYITRHSQEGGRLALRHFLEKASPPLNVFAGADQV | not failed |
| MSLETRARNSTRPASGLIDWEQARQAALRLSQWEQAPVDNRAFRREQYARMVALSEPLIADYLGVRLPEPVSRIFVFDRREWLEANIVSFSQLFRPIEEMYEKNGGGRGALGVLMNDVSSKLLGVQIGGLLGYLAQRVLGQYDLSLLSAEATGGSLYFVEPNIARVQQQLGLSDEDFRLWITLHEMTHAFEFEAYPWVRTYFRELLEQNFALVSGQMLSSGNSLVDMLMRLLQGIGSGQHWIETVLTPEQRAVFDRIQALMSLIEGYGNHVMNAVGRRLLPSFNQIEQQIAQRQRQRTMLDQMVFRLTGLDLKLAQYQQGEAFVNAVVAARGIQFASRVWERPENLPSMDEIRNPGQWIVRMDREGHHHHHH | not failed |
| MSVELEESQVCEACGCAGEIGFIIKEGDEVADVTIFAETKDALESELAKYIELAKSVCAGVEYNVSELTEESKELTARFKFEVSAEKLIFELKTRSLARLEHHHHHH | not failed |
| MGQHEPGAALGRMVRAAWSETLGEDHPDTLAAANRLAGCLVGLRKYAEARDLFADLLPRCERALGWEDPLTLTVVSNLGGCLSALGAHEEARRQCEDIVRRSRLALGPDDPRTLRAASNLAVFLRRLDDHQAALAVWEDTLLRYRRVLGEDHPDTLHAKRDLVALLRAMGEHDRAHAVAGEPLEHHHHHH | failed |
| MRMFFSGLMESLKENKITFLWVLLFFLVGIVLGSYTVYYMSDFNRVEITTYFNNFLEFLGGNSVSYTSILVDSIKSILPMVAIIVLLGYTAVGTPIILMMDLAKGYVIGFTFSLIVSMLGSKGVMLVLSGLMLQNLIFIPIIMLISVLAIRHSVTKLKMGVSRDRVKLDVSRAYLNFQGLLSLIIISGILIETYISPNLIRLVISR | failed |
| LTTTSADYIGPIVEHQYLQWDNWPRLGEILRSEKPLAFQQESRFAHDTRARDAFNDAMVRLSQPMVDVVSELGVFARARTVIDLAGGHGTYLAQVLRRHPQLTGQIWDLPTTRDAARKTIHAHDLGGRVEFFEKNLLDARNFEGGAADVVMLNDCLHYFDAREAREVIGHAAGLVKPGGALLILTMTMNDDRVTPALSADFSLHMMVNTNHGELHPTPWIAGVVRDAGLAVGERSIGRYTLLIGQRSSGEV | failed |
| MTAAENIQEQLYPAPIKTVEEGSPAARAGVRPGDVLLRVNGQPVTDVLAYRHQLERGVVTLEVARPHEAPRVMTGVAGTAQDHHRLMLPQPPSLDETLTFTVEWEDPGLDFEEVLFDGIKKCANKCDFCYVHQMPRGFRKSLYIMDDDYRLSFLYGSFVTLTNLTEGDINRILDENLSPLYVSVHTANQDLRQDMMKWWKLKVKDPQAVQIREMIERLESIDLYTQIVLVPERNDRENLDETVEYLSSRPNVISAAVVPIGLTAHRTNLPDVRTFTPEEAQDTLRRLNVWRRKFLAERGTRFIFPSDELYLLAGEPLPTEEEYEGFPMLENGVGMIRDFLTEALPPLPAALPEPRKVILGTGLLFADSLARAIEPLRQIEGLDIEVRAIENKTFGKVTTVAGLLTGRCFRHAVQPGEADLLIVPPTTLRYGTELMIDDTSLGELRRELKMDVRAGGATLGELARVVLEGAQSSGHQFGMSAHAVKDSGRDDVAPSASRAQGGAAPEESLEEDVAESGMHGRGQA | failed |

— a protein production outcome set (Wang et al. 2014)
